Measured values published in patent US20060223096A1 (GLYCART BIOTECHNOLOGY, published 2006).

Molecular target: T1, human melanoma chondroitin sulfate proteoglycan (MCSP) (human, UniProt Q6UVK1 30-2322)
T1 construct: whole, on cells; also called HMW-MAA; high molecular weight-melanoma-associated antigen
Assay: flow cytometry on A375 human melanoma cells; reference antibody of the comparison
Protocol: The purified, monomeric humanized antibody variants were tested for binding to the human HMW-MAA/MCSP antigen on the A375 human melanoma cell line, using a flow cytometry-based assay. 200,000 cells (in 180 μl FACS buffer (PBS containing 2% FCS and 5 mM EDTA) were transferred to 5 ml polystyrene tubes and 20 μl 10 fold concentrated anti-MCSP antibody (primary antibody) samples (1-5000 ng/ml final concentration) or PBS only were added. After gently mixing the samples, the tubes were incubated at 4° C. for 30 min in the dark. Subsequently, samples were washed twice with FACS buffer and pelleted at 300 g for 3 min. Supernatant was aspirated off and cells were taken up in 50 μl FACS buffer and 2 μl secondary antibody (anti-Fc-specific F(ab′)2-FITC fragments (Jackson Immuno Research Laboratories, USA)) was added and the tubes were incubated at 4° C. for 30 min. Samples were washed twice with FACS buffer and taken up in 500 μl of FACS buffer for analysis by Flow Cytometry. Binding was determined by plotting the geometric mean fluorescence against the antibody concentrations.

T1 sequence (Q6UVK1 30-2322): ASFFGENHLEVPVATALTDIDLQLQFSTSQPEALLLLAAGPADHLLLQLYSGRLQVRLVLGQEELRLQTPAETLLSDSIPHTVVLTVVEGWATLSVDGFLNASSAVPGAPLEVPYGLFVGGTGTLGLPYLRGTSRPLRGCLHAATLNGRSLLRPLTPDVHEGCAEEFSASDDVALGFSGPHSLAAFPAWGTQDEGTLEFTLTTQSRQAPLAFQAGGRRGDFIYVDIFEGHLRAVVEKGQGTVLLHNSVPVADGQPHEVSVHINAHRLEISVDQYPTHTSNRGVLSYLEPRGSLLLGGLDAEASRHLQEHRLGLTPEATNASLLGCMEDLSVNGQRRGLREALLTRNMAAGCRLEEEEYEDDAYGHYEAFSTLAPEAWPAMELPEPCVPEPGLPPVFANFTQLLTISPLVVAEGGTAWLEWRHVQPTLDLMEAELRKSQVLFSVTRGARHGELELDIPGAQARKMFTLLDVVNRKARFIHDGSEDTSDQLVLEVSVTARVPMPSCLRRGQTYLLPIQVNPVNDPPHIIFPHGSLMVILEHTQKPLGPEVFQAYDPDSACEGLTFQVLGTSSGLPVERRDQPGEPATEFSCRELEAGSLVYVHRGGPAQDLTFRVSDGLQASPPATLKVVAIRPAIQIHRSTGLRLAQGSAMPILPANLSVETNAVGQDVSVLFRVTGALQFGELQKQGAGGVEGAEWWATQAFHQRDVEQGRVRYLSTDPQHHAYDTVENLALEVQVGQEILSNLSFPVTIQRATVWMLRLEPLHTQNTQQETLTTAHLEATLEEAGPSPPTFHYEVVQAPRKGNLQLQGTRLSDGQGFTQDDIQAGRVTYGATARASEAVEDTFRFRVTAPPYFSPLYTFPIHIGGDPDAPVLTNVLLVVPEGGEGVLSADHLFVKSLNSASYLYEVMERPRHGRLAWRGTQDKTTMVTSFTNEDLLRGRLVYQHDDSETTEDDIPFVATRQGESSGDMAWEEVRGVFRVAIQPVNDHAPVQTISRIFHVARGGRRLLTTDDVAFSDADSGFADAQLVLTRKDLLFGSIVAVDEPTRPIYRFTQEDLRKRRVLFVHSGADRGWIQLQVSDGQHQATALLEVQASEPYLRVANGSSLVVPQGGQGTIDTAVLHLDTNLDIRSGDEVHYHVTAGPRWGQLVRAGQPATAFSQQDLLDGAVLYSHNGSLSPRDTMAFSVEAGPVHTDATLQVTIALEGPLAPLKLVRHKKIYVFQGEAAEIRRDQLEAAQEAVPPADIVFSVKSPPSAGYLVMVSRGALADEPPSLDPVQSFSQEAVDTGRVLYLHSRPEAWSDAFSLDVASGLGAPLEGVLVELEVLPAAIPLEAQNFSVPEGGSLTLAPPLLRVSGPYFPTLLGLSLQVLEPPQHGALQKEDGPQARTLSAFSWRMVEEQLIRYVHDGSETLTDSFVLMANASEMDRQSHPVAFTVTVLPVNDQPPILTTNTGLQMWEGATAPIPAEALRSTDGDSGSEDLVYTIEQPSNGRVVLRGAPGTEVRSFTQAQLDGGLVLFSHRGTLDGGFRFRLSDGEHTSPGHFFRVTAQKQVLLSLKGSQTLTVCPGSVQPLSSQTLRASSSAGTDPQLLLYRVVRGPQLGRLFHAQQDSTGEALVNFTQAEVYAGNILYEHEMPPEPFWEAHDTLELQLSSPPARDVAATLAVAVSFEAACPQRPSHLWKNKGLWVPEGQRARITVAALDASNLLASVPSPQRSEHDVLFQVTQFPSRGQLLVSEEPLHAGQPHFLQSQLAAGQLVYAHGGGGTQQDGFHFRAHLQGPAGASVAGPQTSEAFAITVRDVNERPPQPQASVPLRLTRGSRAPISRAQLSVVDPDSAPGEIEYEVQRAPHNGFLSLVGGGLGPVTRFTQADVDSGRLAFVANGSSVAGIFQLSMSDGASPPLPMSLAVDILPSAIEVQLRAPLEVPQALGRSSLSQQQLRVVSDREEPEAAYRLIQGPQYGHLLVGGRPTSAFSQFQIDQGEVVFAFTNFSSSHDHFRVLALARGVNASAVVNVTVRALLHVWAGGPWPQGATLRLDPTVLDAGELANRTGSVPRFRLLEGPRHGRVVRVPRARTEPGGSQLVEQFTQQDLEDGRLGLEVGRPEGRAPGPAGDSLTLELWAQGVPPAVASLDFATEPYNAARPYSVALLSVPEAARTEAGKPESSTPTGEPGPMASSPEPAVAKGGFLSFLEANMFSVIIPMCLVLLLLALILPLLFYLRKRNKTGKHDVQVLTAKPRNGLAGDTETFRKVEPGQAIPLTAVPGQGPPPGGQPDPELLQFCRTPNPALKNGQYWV

binding result: binds
B1: ch-225.28S antibody (murine 225.28S VH and VL with human constant regions) (antibody, V domains shown)
VH: QVKLQQSGGGLVQPGGSMKLSCVVSGFTFSNYWMNWVRQSPEKGLEWIAEIRLKSNNFGRYYAESVKGRFTISRDDSKSSAYLQMINLRAEDTGIYYCTSYGNYVGHYFDHWGQGTTVTVSS
VL: DIELTQSPKFMSTSVGDRVSVTCKASQNVDTNVAWYQQKPGQSPEPLLFSASYRYTGVPDRFTGSGSGTDFTLTISNVQSEDLAEYFCQQYNSYPLTFGGGTKLEIK
notes: also called mVH/mVL
